Experimental data published in paper PMC4860839, “Structures of the APC–ARM domain in complexes with discrete Amer1/WTX fragments reveal that it uses a consensus mode to recognize its binding partners” (Cell Discovery, 2015).

Molecular target: T1, APC–ARM, human APC (407–751), N-terminally His-tagged (human, UniProt P25054 407-751)
T1 construct: human APC, armadillo repeat (ARM) domain, residues 407–751; source: E. coli BL21(DE3), purified (Ni2+-NTA, Superdex200)
T1 sequence (looked up): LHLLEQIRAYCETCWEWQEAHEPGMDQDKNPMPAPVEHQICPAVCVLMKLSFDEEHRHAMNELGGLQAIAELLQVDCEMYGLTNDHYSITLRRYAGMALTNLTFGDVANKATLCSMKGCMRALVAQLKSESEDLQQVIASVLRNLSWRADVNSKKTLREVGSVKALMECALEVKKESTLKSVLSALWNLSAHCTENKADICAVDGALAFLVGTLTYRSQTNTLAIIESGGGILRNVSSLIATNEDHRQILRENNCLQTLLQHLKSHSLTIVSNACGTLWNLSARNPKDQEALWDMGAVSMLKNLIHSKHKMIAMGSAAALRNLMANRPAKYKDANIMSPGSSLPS
Test: pull-down; competition: GST-Amer1-A2/APC–ARM complex (0.5 mg/ml, 4 ml) preloaded on the GST column at 4 °C; 0.1, 0.2, 0.5, 1 mg/ml Asef ABR-SH3 (0.5 ml) added; SDS–PAGE, Coomassie
Conditions: both partners purified

B1: Asef-ABR-SH3 (residues 170–271) (domain or fragment, human, UniProt Q9NR80 170-271, looked up)
chain: SSSHHYSHPGGGGEQLAINELISDGSVVCAEALWDHVTMDDQELGFKAGDVIEVMDATNREWWWGRVADGEGWFPASFVRLRVNQDEPADDDAPLAGNSGAE
notes: Added as a protein at stated concentrations; its expression and purification are not described; also called ABR-SH3 domain of Asef
B1: binds.
